Results: patent US20150344570A1 (published 2015)

T1: FcγRIIb extracellular domain with C-terminal His tag (human, UniProt P31994 43-217)
T1 construct: extracellular domain; also called FcgRIIb; 2b; not shown: His tag at the C terminus
T1 sequence (looked up): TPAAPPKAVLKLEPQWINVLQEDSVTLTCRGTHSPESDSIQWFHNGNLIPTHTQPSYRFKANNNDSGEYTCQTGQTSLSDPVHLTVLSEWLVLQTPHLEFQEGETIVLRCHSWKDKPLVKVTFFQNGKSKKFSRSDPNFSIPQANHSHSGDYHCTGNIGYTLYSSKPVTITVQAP

B1: GpH7-B3 variant S267_14T/GpL16-k0 (antibody, human IgG1, kappa)
heavy: not shown
light: DIVMTQSPLSLPVTPGEPASISCQASESLVHSNRNTYLHWYLQKPGQSPQLLIYKVSNRFSGVPDRFSGSGSGTDFTLKISRVEAEDVGVYYCSQNTHVPPTFGQGTKVEIERTVAAPSVFIFPPSDEQLKSGTASVVCLLNNFYPREAKVQWKVDNALQSGNSQESVTEQDSKDSTYSLSSTLTLSKADYEKHKVYACEVTHQGLSSPVTKSFNRGEC
notes: Alteration in both H chains; also called Ho Ab S267_14T
B2: GpH7-B3 variant S267_18N/GpL16-k0 (antibody, human IgG1, kappa)
heavy: not shown
light: B1 light
notes: Alteration in both H chains; also called Ho Ab S267_18N
B3: GpH7-B3 variant P271_19Q/GpL16-k0 (antibody, human IgG1, kappa)
heavy: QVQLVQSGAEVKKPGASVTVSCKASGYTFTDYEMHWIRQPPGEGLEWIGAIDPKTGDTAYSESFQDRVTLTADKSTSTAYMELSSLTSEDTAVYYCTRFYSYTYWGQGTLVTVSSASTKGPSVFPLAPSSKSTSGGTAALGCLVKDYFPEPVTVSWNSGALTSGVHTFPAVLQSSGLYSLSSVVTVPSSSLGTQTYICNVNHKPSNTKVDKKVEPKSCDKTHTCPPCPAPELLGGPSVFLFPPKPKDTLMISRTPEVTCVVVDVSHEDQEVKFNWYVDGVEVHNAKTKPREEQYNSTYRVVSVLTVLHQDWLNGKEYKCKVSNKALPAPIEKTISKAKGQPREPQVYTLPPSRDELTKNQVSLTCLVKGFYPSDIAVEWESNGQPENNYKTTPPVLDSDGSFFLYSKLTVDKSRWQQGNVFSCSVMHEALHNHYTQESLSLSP
light: B1 light
notes: Alteration in both H chains; also called Ho Ab P271_19Q
B4: GpH7-B3 variant I336_15Y/GpL16-k0 (antibody, human IgG1, kappa)
heavy: not shown
light: B1 light
notes: Alteration in both H chains; also called Ho Ab I336_15Y
B5: GpH7-B3 variant S337_14T/GpL16-k0 (antibody, human IgG1, kappa)
heavy: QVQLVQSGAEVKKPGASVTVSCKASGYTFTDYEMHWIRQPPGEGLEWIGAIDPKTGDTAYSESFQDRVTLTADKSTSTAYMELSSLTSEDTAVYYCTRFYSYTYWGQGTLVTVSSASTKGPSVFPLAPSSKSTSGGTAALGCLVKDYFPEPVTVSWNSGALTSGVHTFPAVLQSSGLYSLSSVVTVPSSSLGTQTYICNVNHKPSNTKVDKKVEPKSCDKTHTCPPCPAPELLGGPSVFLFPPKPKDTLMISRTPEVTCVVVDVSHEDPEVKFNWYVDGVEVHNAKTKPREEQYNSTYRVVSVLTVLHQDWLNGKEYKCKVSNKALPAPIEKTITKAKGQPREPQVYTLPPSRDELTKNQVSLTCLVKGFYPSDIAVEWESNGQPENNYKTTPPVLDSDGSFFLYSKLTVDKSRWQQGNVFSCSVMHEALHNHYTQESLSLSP
light: B1 light
notes: Alteration in both H chains; also called Ho Ab S337_14T
B6: GpH7-B3 variant K334_02A/GpL16-k0 (antibody, human IgG1, kappa)
heavy: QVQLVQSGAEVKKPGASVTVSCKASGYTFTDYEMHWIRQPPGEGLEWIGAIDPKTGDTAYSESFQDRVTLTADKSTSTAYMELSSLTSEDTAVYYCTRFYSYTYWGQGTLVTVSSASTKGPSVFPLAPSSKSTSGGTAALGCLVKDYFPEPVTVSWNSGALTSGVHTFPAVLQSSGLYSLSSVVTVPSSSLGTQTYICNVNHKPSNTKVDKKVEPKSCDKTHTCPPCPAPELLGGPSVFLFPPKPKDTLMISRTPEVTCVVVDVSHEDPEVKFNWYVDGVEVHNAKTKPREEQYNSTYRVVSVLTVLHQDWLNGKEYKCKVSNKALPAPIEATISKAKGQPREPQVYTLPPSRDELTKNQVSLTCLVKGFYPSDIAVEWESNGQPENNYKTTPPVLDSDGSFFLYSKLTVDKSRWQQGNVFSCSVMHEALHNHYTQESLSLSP
light: B1 light
notes: Alteration in both H chains; also called Ho Ab K334_02A
B7: GpH7-B3 variant K334_14T/GpL16-k0 (antibody, human IgG1, kappa)
heavy: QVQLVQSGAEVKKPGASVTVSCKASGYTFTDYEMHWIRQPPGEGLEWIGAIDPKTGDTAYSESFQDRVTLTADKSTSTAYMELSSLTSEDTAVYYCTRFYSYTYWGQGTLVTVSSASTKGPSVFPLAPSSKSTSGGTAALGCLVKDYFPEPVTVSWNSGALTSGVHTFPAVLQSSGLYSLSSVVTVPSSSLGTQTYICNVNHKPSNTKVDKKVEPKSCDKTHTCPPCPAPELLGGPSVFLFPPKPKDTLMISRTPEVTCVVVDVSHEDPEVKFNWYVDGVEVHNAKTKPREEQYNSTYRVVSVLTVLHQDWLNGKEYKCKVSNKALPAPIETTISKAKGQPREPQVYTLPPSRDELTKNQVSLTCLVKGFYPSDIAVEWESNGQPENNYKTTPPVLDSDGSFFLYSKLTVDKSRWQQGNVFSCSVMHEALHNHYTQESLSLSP
light: B1 light
notes: Alteration in both H chains; also called Ho Ab K334_14T
B8: GpH7-B3 variant S337_16H/GpL16-k0 (antibody, human IgG1, kappa)
heavy: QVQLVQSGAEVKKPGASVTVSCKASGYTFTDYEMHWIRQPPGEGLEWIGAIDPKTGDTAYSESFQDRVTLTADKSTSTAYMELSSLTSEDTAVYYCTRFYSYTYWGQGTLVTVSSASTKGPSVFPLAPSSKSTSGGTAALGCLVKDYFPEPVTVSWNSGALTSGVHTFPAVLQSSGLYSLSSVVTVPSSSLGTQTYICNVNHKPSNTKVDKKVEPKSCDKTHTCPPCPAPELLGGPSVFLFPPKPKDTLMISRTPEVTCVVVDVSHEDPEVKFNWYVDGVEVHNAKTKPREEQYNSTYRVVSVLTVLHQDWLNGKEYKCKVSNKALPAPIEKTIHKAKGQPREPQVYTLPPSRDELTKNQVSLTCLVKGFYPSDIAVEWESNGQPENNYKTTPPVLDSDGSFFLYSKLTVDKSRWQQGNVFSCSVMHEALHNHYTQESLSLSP
light: B1 light
notes: Alteration in both H chains; also called Ho Ab S337_16H
B9: GpH7-B3 variant K326_19Q/GpL16-k0 (antibody, human IgG1, kappa)
heavy: not shown
light: B1 light
notes: Alteration in both H chains; also called Ho Ab K326_19Q
B10: GpH7-B3 variant K334_19Q/GpL16-k0 (antibody, human IgG1, kappa)
heavy: not shown
light: B1 light
notes: Alteration in both H chains; also called Ho Ab K334_19Q
B11: GpH7-B3 variant P271_01G/GpL16-k0 (antibody, human IgG1, kappa)
heavy: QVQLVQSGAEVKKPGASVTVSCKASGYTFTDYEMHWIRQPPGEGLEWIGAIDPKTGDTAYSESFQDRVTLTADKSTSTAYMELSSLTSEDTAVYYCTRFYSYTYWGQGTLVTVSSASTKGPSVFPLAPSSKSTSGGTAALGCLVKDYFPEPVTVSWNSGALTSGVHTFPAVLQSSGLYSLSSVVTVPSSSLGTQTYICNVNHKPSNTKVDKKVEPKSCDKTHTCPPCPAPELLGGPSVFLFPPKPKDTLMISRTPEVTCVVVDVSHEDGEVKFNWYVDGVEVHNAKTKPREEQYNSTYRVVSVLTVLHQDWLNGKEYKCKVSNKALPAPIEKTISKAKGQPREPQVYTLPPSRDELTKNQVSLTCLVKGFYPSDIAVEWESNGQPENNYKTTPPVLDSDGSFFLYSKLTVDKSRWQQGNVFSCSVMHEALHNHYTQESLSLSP
light: B1 light
notes: Alteration in both H chains; also called Ho Ab P271_01G
B12: GpH7-B3 variant K326_04F/GpL16-k0 (antibody, human IgG1, kappa)
heavy: not shown
light: B1 light
notes: Alteration in both H chains; also called Ho Ab K326_04F
B13: GpH7-B3 variant K334_07I/GpL16-k0 (antibody, human IgG1, kappa)
heavy: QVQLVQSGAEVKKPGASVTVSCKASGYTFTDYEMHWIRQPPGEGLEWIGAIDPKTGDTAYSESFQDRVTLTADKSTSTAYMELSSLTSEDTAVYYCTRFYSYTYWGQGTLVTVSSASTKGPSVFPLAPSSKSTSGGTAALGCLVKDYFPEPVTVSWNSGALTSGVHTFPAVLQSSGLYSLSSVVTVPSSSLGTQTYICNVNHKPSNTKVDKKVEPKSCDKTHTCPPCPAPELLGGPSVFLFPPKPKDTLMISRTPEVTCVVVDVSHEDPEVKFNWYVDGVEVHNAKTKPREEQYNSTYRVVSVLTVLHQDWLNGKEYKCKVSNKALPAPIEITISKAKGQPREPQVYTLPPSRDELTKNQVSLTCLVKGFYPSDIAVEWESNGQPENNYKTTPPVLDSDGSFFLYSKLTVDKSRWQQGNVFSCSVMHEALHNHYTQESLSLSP
light: B1 light
notes: Alteration in both H chains; also called Ho Ab K334_07I
B14: GpH7-B3 variant P271_08L/GpL16-k0 (antibody, human IgG1, kappa)
heavy: not shown
light: B1 light
notes: Alteration in both H chains; also called Ho Ab P271_08L
B15: GpH7-B3 variant K334_15Y/GpL16-k0 (antibody, human IgG1, kappa)
heavy: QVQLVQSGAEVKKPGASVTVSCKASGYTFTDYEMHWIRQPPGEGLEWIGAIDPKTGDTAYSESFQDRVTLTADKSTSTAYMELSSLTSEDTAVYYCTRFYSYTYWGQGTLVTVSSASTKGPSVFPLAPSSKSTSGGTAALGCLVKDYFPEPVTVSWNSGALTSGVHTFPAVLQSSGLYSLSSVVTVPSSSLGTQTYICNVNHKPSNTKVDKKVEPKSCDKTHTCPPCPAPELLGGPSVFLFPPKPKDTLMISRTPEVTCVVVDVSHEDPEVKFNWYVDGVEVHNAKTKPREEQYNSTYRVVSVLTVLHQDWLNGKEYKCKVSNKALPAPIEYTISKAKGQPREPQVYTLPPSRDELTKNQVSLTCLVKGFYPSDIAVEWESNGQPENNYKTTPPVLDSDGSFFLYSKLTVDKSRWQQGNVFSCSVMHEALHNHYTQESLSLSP
light: B1 light
notes: Alteration in both H chains; also called Ho Ab K334_15Y
B16: GpH7-B3 variant S324_09D/GpL16-k0 (antibody, human IgG1, kappa)
heavy: not shown
light: B1 light
notes: Alteration in both H chains; also called Ho Ab S324_09D
B17: GpH7-B3 variant K326_07I/GpL16-k0 (antibody, human IgG1, kappa)
heavy: not shown
light: B1 light
notes: Alteration in both H chains; also called Ho Ab K326_07I
B18: GpH7-B3 variant K334_03V/GpL16-k0 (antibody, human IgG1, kappa)
heavy: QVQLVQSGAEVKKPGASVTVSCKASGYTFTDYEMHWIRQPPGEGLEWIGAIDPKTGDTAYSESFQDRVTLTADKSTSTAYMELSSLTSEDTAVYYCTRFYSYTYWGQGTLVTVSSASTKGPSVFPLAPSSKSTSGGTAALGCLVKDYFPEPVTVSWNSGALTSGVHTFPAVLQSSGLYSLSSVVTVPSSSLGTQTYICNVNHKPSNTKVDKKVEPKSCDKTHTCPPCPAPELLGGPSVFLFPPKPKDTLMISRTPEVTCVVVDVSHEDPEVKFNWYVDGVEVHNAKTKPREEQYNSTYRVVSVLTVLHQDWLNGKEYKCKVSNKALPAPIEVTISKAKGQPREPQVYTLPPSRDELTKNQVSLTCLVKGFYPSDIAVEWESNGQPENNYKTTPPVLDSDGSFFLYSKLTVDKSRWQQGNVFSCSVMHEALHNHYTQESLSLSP
light: B1 light
notes: Alteration in both H chains; also called Ho Ab K334_03V
B19: GpH7-B3 variant S267_19Q/GpL16-k0 (antibody, human IgG1, kappa)
heavy: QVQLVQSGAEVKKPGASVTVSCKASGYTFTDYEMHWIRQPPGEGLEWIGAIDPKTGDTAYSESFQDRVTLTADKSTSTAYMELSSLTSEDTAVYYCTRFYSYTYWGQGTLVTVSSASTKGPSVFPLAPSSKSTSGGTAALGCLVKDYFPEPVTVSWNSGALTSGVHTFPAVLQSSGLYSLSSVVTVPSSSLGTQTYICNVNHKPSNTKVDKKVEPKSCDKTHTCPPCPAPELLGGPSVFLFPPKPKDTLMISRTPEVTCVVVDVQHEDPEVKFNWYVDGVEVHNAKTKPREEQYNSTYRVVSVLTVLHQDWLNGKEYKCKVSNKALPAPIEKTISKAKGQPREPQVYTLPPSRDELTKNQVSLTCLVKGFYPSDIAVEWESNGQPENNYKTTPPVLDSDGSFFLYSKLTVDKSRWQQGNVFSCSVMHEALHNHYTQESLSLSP
light: B1 light
notes: Alteration in both H chains; also called Ho Ab S267_19Q
B20: GpH7-B3 variant P271_10E/GpL16-k0 (antibody, human IgG1, kappa)
heavy: not shown
light: B1 light
notes: Alteration in both H chains; also called Ho Ab P271_10E
B21: GpH7-B3 variant K334_04F/GpL16-k0 (antibody, human IgG1, kappa)
heavy: not shown
light: B1 light
notes: Alteration in both H chains; also called Ho Ab K334_04F
B22: GpH7-B3 variant K326_06M/GpL16-k0 (antibody, human IgG1, kappa)
heavy: not shown
light: B1 light
notes: Alteration in both H chains; also called Ho Ab K326_06M
B23: GpH7-A5/GpH7-B3 variant Y296_13S/GpL16-k0 (antibody, human IgG1, kappa)
heavy 1: not shown
heavy 2: not shown
light: B1 light
notes: Heterodimerized IgG1 antibody; alteration in the GpH7-B3 chain only; also called He Ab
B24: GpH7-A5/GpH7-B3 variant Y296_16H/GpL16-k0 (antibody, human IgG1, kappa)
heavy 1: not shown
heavy 2: not shown
light: B1 light
notes: as for B23
B25: GpH7-A5/GpH7-B3 variant Y300_10E/GpL16-k0 (antibody, human IgG1, kappa)
heavy 1: not shown
heavy 2: not shown
light: B1 light
notes: as for B23
B26: GpH7-A5/GpH7-B3 variant Y296_14T/GpL16-k0 (antibody, human IgG1, kappa)
heavy 1: not shown
heavy 2: not shown
light: B1 light
notes: as for B23
B27: GpH7-A5/GpH7-B3 variant Y296_18N/GpL16-k0 (antibody, human IgG1, kappa)
heavy 1: not shown
heavy 2: not shown
light: B1 light
notes: as for B23

The binders below were run against T2, FcγRIa (human, UniProt P12314 16-292) (assay: SPR (Biacore), relative binding; control HoCon Ab GpH7-B3/GpL16-k0).
T2 construct: extracellular domain; also called FcgRI; FcgRIa; not shown: His tag attached to the C terminus
T2 sequence (P12314 16-292): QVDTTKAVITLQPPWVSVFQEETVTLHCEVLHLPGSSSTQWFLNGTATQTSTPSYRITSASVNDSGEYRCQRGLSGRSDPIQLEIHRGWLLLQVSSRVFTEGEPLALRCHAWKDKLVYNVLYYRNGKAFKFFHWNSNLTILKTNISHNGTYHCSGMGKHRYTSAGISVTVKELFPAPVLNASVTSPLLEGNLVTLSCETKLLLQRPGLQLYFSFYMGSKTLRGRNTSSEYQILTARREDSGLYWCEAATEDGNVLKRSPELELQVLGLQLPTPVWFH

Ho/Con_1a | Binder
107 % of control (=100) | B1
107 % of control (=100) | B2
104 % of control (=100) | B3
110 % of control (=100) | B4
106 % of control (=100) | B5
106 % of control (=100) | B6
106 % of control (=100) | B7
105 % of control (=100) | B8
105 % of control (=100) | B9
106 % of control (=100) | B10
106 % of control (=100) | B11
102 % of control (=100) | B12
107 % of control (=100) | B13
103 % of control (=100) | B14
107 % of control (=100) | B15
106 % of control (=100) | B16
102 % of control (=100) | B17
105 % of control (=100) | B18
104 % of control (=100) | B19
103 % of control (=100) | B20
106 % of control (=100) | B21
104 % of control (=100) | B22

Each binder was assayed against T1, FcγRIIb extracellular domain with … (assay: SPR (Biacore), FcγR as analyte over captured antibody; GpH7-A5/GpH7-B3/GpL16-k0 = 100).

He/Con_2b | Binder
86.3 % of control | B23
92.2 % of control | B24
134 % of control | B25
88.2 % of control | B26
91.5 % of control | B27

Each binder was assayed against T3, FcγRIIIa extracellular domain with C-terminal His tag (human, UniProt P08637 17-208) in the same assay as above.
T3 construct: extracellular domain; also called FcgRIIIa; 3a; not shown: His tag at the C terminus
T3 sequence (P08637 17-208): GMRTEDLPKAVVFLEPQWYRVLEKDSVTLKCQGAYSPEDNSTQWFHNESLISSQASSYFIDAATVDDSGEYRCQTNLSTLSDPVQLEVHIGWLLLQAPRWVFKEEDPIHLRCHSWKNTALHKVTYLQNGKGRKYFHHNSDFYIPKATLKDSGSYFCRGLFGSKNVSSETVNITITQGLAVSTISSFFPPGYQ

He/Con_3a | Binder
61.8 % of control | B23
73.4 % of control | B24
104 % of control | B25
64.5 % of control | B26
72.1 % of control | B27

These binders were tested against T3, FcγRIIIa extracellular domain with … (assay: SPR (Biacore); He/Con_3a divided by He/Con_2b (FcγRIIb)).

He_3a/2b (IIIa/IIb) | Binder
0.72 ratio | B23
0.8 ratio | B24
0.78 ratio | B25
0.73 ratio | B26
0.79 ratio | B27
